From US5246838A, “Processing of proteins” (priority 1990, dated 1993)

Legend:
[1] = system: E. coli cells containing pSPB plasmids (beta-lactamase with the indicated signal peptide); experiment: Ampicillin resistance in E. coli carrying pSPB plasmids (colony formation); format: cell-based
Text: described in Materials and Methods. Resistance to ampicillin was defined
as the maximal concentration of the antibiotic at which 100% of the E.
coli cells could form colonies. Plasmids indicated by pSPA . . . contain
amylase with the indicated signal peptide, plasmids indicated by pSPB . .
. contain lactamase with the indicated signal peptide.

[2] = molecular target: pre(A13i)-β-lactamase (B. subtilis; E. coli) (UniProt P62593)
[3] = molecular target: truncated pre-β-lactamase (E.coli) (UniProt P62593)
[4] = molecular target: wild-type TEM pre-β-lactamase (E.coli) (UniProt P62593)
[5] = molecular target: pre(A2)-β-lactamase (E. coli) (UniProt P62593)
[6] = molecular target: pre(A2d)-β-lactamase (E. coli) (UniProt P62593)
[7] = molecular target: pre(A42)-β-lactamase (E. coli) (UniProt P62593)
[8] = molecular target: pre(A13i)-β-lactamase (B. subtilis; E. coli) (UniProt P62593); conditions: scale: % of all the

Compound: CC1(C)S[C@@H]2[C@H](NC(=O)[C@H](N)c3ccccc3)C(=O)N2[C@H]1C(=O)O [ampicillin]
- E. coli amp. resist. (maximal concentration of the antibiotic at which 100% of the E. coli cells could form colonies) ([1]; E. coli containing pSPB-A2): 300 µg/mL
- E. coli amp. resist. (maximal concentration of the antibiotic at which 100% of the E. coli cells could form colonies) ([1]; E. coli containing pSPB-A13): 300 µg/mL
- E. coli amp. resist. (maximal concentration of the antibiotic at which 100% of the E. coli cells could form colonies) ([1]; E. coli containing pSPB-A13i): 100 µg/mL
- E. coli amp. resist. (maximal concentration of the antibiotic at which 100% of the E. coli cells could form colonies) ([1]; E. coli containing pSPB-A42): 20 µg/mL
- E. coli amp. resist. (maximal concentration of the antibiotic at which 100% of the E. coli cells could form colonies) ([1]; E. coli containing pSPB-A2d): 500 µg/mL
- E. coli amp. resist. (maximal concentration of the antibiotic at which 100% of the E. coli cells could form colonies) ([1]; E. coli containing pSPB-A42d): 100 µg/mL

Compound: B. subtilis SPase I (enzyme)
- t50, time necessary to obtain equal amounts of the precursor and the mature forms, pulse-chase labeling in B. subtilis DB104 [2]: 6 min

Compound: E.coli SPase I (signal peptidase I) (from UniProt P00803) (enzyme)
- fraction unprocessed truncated (P') lactamase, pulse-chase labeling, samples 15 s after the chase [3]: 63%
- fraction unprocessed wildtype (P) lactamase, pulse-chase labeling, samples 15 s after the chase [4]: 15%
- t50, time necessary to process 50% of the precursor, pulse-chase labeling in E.coli C600 [5]: 2.2 min
- t50, time necessary to process 50% of the precursor, pulse-chase labeling in E.coli C600 [6]: < 1 min
- t50, time necessary to process 50% of the precursor, pulse-chase labeling in E.coli C600 [7]: 15 min
- relative amount of mature enzyme, pulse-chase labeling in E.coli C600 [8]: 6 to 7

Compound: S.typhimurium SPase I (enzyme)
- fraction unprocessed truncated (P') lactamase, pulse-chase labeling, samples 15 s after the chase [3]: 60%
- fraction unprocessed wildtype (P) lactamase, pulse-chase labeling, samples 15 s after the chase [4]: 16%
